Assay results reported in article PMC3904261 (British Journal of Pharmacology, 2013).
Bridge positions count the residues as written; N and C are the ends. Ends that are not written are not given here.

Tests used:
[1] = target: AMY_(1(a)) receptor (human HA-tagged CT (a) receptor with human myc-tagged RAMP1) (human) (UniProt O60894)
[2] = target: T1, CGRP receptor (calcitonin receptor-like receptor in complex with receptor activity-modifying protein 1) (human (endogenous in SK-N-MC), UniProt Q16602 23-461; O60894 27-148); assay: cell-based or functional assay
[3] = target: T1, CGRP receptor (calcitonin receptor-like …); assay: cell-based or functional assay; remark: listed apart in the source
[4] = target: T1, CGRP receptor (calcitonin receptor-like …); assay: radioligand binding; displacement of ^125I-CGRP from SK-N-MC cell membranes by unlabelled peptides, microcentrifugation-based binding assay; [Cys^5]-CGRP and its control on another batch of SK-N-MC cells; settings: one partner purified

Chain of AMY_(1(a)) receptor (human HA-tagged CT (a) receptor with human myc-tagged RAMP1) (human) (O60894 whole entry, looked up): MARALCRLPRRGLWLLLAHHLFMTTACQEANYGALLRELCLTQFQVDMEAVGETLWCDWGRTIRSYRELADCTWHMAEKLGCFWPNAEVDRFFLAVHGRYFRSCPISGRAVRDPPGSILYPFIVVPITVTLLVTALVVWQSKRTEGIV
T1 sequence (Q16602 23-461, chain 1 of 2): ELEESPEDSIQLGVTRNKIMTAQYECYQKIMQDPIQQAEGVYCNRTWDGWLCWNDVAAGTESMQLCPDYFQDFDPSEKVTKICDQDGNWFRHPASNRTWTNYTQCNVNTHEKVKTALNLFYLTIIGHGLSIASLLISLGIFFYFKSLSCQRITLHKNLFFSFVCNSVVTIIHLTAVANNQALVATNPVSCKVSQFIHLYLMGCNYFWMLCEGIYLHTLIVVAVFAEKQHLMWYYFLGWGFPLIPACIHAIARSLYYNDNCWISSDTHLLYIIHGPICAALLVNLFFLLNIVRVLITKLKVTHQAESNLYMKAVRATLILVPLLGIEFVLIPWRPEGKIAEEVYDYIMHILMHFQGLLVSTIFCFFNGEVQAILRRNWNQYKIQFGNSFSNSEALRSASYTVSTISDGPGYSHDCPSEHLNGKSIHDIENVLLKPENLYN
T1 sequence (O60894 27-148, chain 2 of 2): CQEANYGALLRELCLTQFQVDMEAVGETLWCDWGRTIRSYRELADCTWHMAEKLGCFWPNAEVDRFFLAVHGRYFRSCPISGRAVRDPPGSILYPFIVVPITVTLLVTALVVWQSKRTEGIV

B1: [Ala^6]-CGRP (peptide)
chain: ACDTAACVTHRLAGLLSRSGGVVKNNFVPTNVGSKAF-NH2
modifications: disulfide 2-7
Emax (% CGRP), cAMP production in Cos 7 cells with the AMY (1(a)) receptor [1]: 42 % CGRP
pEC50, cAMP production in Cos 7 cells with the AMY (1(a)) receptor [1]: 7
pEC50, cAMP production in the second clone of SK-N-MC cells, AlphaScreen (control experiment) [2]: 7.39
Emax (% CGRP), cAMP production in SK-N-MC cells [3]: 72 % CGRP
Emax (% CGRP), β-arrestin 2 translocation in CHO-K1 cells expressing the human CGRP receptor [3]: 43 % CGRP
pEC50, cAMP production in SK-N-MC cells [3]: 6.59
pEC50, β-arrestin 2 translocation in CHO-K1 cells expressing the human CGRP receptor [3]: 7.74
pKi [4]: 8.57

B2: [Cys^5]-CGRP (peptide)
chain: ACDTCTCVTHRLAGLLSRSGGVVKNNFVPTNVGSKAF-NH2
modifications: disulfide 2-7; N-terminus assumed
SMILES: CC(C)C[C@H](NC(=O)CNC(=O)[C@H](C)NC(=O)[C@H](CC(C)C)NC(=O)[C@H](CCCNC(=N)N)NC(=O)[C@H](Cc1c[nH]cn1)NC(=O)[C@@H](NC(=O)[C@@H](NC(=O)[C@@H]1CSSC[C@H](NC(=O)[C@H](C)N)C(=O)N[C@@H](CC(=O)O)C(=O)N[C@@H]([C@@H](C)O)C(=O)N[C@@H](CS)C(=O)N[C@@H]([C@@H](C)O)C(=O)N1)C(C)C)[C@@H](C)O)C(=O)N[C@@H](CC(C)C)C(=O)N[C@@H](CO)C(=O)N[C@@H](CCCNC(=N)N)C(=O)N[C@@H](CO)C(=O)NCC(=O)NCC(=O)N[C@H](C(=O)N[C@H](C(=O)N[C@@H](CCCCN)C(=O)N[C@@H](CC(N)=O)C(=O)N[C@@H](CC(N)=O)C(=O)N[C@@H](Cc1ccccc1)C(=O)N[C@H](C(=O)N1CCC[C@H]1C(=O)N[C@H](C(=O)N[C@@H](CC(N)=O)C(=O)N[C@H](C(=O)NCC(=O)N[C@@H](CO)C(=O)N[C@@H](CCCCN)C(=O)N[C@@H](C)C(=O)N[C@@H](Cc1ccccc1)C(N)=O)C(C)C)[C@@H](C)O)C(C)C)C(C)C)C(C)C
Emax (% CGRP), cAMP production in Cos 7 cells with the AMY (1(a)) receptor [1]: 50 % CGRP
pEC50, cAMP production in Cos 7 cells with the AMY (1(a)) receptor [1]: 7.78
pEC50, cAMP production in Cos 7 cells transfected with CLR and RAMP1 [2]: 7.9
Emax (% CGRP), β-arrestin 2 translocation in CHO-K1 cells expressing the human CGRP receptor [3]: 55 % CGRP
pEC50, cAMP production in SK-N-MC cells (other clone of cells, AlphaScreen; footnote: no response seen in five experiments) [3]: 7.18
pEC50, β-arrestin 2 translocation in CHO-K1 cells expressing the human CGRP receptor [3]: 8.25
pKi [4]: 8

B3: [Ala^4]-CGRP (peptide)
chain: ACDAATCVTHRLAGLLSRSGGVVKNNFVPTNVGSKAF-NH2
modifications: disulfide 2-7
Emax (% CGRP), cAMP production in Cos 7 cells with the AMY (1(a)) receptor [1]: 161 % CGRP
pEC50, cAMP production in Cos 7 cells with the AMY (1(a)) receptor [1]: 8.57
pEC50, cAMP production in the second clone of SK-N-MC cells, AlphaScreen (control experiment) [2]: 7.58
Emax (% CGRP), cAMP production in SK-N-MC cells [3]: 100 % CGRP
Emax (% CGRP), β-arrestin 2 translocation in CHO-K1 cells expressing the human CGRP receptor [3]: 73 % CGRP
pEC50, cAMP production in SK-N-MC cells [3]: 7.43
pEC50, β-arrestin 2 translocation in CHO-K1 cells expressing the human CGRP receptor [3]: 8.42
pKi [4]: 9.4
